Holding throughout (format): biochemical
Data set [1] in a line: HTP-analysis of yeast culture supernatants, no challenge (MUGal hydrolysis). To be noted: activity of the variant/activity of WT GLA (SEQ ID NO: 5), yeast supernatant. The method, boiled down:
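GLA variants were expressed in INVSc1 yeast grown in SD-Ura broth with glucose at 30° C., and culture supernatants were collected after 66-84 h. Supernatant was mixed with McIlvaine buffer pH 4.8 and MUGal (2 mM stock) in 50 mM citrate, 200 mM KCl, pH 4.6, incubated at 37° C. for 30-180 minutes, then quenched with sodium carbonate.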

The nature of data set [2]: HTP-analysis of supernatants pretreated with acid (MUGal hydrolysis). As to conditions: challenge at pH 4.2; activity of the variant/activity of WT GLA (SEQ ID NO: 5); yeast supernatant. The method, boiled down:
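MUGal hydrolysis was tracked by fluorescence (Ex 355 nm, Em 448 nm) after a 30-180 min reaction at 37° C. in pH 4.8 McIlvaine/citrate buffer, stopped with 1 M sodium carbonate. Beforehand, yeast (INVSc1) culture supernatants carrying GLA variants were held 1-3 h at 37° C. in acidic McIlvaine buffer, pH 3.3-4.3.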

A short description of data set [3]: HTP-analysis of supernatants pretreated with base (MUGal hydrolysis). As to conditions: challenge at pH 7.1; activity of the variant/activity of WT GLA (SEQ ID NO: 5); yeast supernatant. The method, boiled down: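 Supernatants from INVSc1 yeast expressing GLA variants (SD-Ura, 66-84 h, 30° C) were mixed with McIlvaine buffer pH 7.0-8.2 or 200 mM sodium bicarbonate pH 9.1-9.7 and held 1-18 h at 37° C. Residual activity was then measured on MUGal at pH 4.8/4.3, 37° C, 30-180 min, by fluorescence (Ex 355/Em 448 nm).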

B1: 148 (protein)
chain: LDNGLARTPTMGWLHWERFMCNLDCQEEPDSCISEKLFMEMAELMVSEGWKDAGYEYLCIDDCWMAPQRDSEGRLQADPQRFPHGIRRLANYVHSKGLKLGIYADVGNKTCAGFPGSFGYYDIDAQTFADWGVDLLKFDGCYCDSLENLADGYKHMSLALNRTGRSIVYSCEWPLYMWPFQKPNYTEIRQYCNHWRNFADIDDSWKSIKSILDWTSFNQERIVDVAGPGGWNDPDMLVIGNFGLSWNQQVTQMALWAIMAAPLFMSNDLRHISPQAKALLQDKDVIAINQDPLGKQGYQLRQGDNFEVWERPLSGLAWAVAMINRQEIGGPRSYTIAVASLGKGVACNPACFITQLLPVKRKLGFYEWTSRLRSHINPTGTVLLQLENTMQMSKDLLL
modifications: Synthetic Polypeptide sequence of Variant No. 148 of mature Human GLA
In the case of B1, in data set [1], the “Relative Activity of GLA Variants After No Challenge (NC)” value is reported as “+ (+ = 0.5 to 1.5 relative activity over WT GLA (SEQ ID NO: 5))”. Moreover, in data set [2], the “Relative Activity of GLA Variants After Challenge at pH 4.2” value (from here on “Relative Activity … at pH 4.2”) is listed as “++ (++ = >1.5 to 2.5 relative activity over WT GLA (SEQ ID NO: 5))”. For the same molecule, in data set [3], the “Relative Activity of GLA Variants After Challenge at pH 7.1” value (“Relative Activity … at pH 7.1” for short) was “+ (+ = 0.5 to 1.5 relative activity over WT GLA (SEQ ID NO: 5))”.

B2: 151 (protein)
chain: LDNGLARTPTMGWLHWERFMCNLDCQEEPDSCISEKLFMEMAELMVSEGWKDAGYEYLCIDDCWMAPQRDSEGRLQADPQRFPHGIRQLANYVHSKGLKLGIYADVGNKTCAGFPGSFGYYDIDAQTFADWGVDLLKFDGCYCDSLENLADGYKHMSLALNSTGRSIVYSCEWPLYMWPFQKPNYTEIRQYCNHWRNFADIDDSWKSIKSILDWTSFNQERIVDVAGPGGWNDPDMLVIGNFGLSWNQQVTQMALWAIMAAPLFMSNDLRHISPQAKALLQDKDVIAINQDPLGKQGYQLRQGDNFEVWERPLSGLAWAVAMINRQEIGGPRSYTIAVASLGKGVACNPACFITQLLPVKRKLGFYEWTSRLRSHINPTGTVLLQLENTMQMSKDLLL
modifications: Synthetic Polypeptide sequence of Variant No. 151 of mature Human GLA
Turning to B2, the “Relative Activity of GLA Variants After No Challenge (NC)” value in data set [1] is “+ (+ = 0.5 to 1.5 relative activity over WT GLA (SEQ ID NO: 5))”. Also, the “Relative Activity … at pH 4.2” value in data set [2] was “+ (+ = 0.5 to 1.5 relative activity over WT GLA (SEQ ID NO: 5))”. The “Relative Activity … at pH 7.1” value in data set [3] is reported as “+ (+ = 0.5 to 1.5 relative activity over WT GLA (SEQ ID NO: 5))”.

B3: 150 (protein)
chain: LDNGLARTPTMGWLHWERFMCNLDCQEEPDSCISEKLFMEMAELMVSEGWKDAGYEYLCIDDCWMAPQRDSEGRLQADPQRFPHGIRQLANYVHSKGLKLGIYADVGNKTCAGFPGSFGYYDIDAQTFADWGVDLLKFDGCYCDSLENLADGYKHMSLALNHTGRSIVYSCEWPLYMWPFQKPNYTEIRQYCNHWRNFADIDDSWKSIKSILDWTSFNQERIVDVAGPGGWNDPDMLVIGNFGLSWNQQVTQMALWAIMAAPLFMSNDLRHISPQAKALLQDKDVIAINQDPLGKQGYQLRQGDNFEVWERPLSGLAWAVAMINRQEIGGPRSYTIAVASLGKGVACNPACFITQLLPVKRKLGFYEWTSRLRSHINPTGTVLLQLENTMQMSKDLLL
modifications: Synthetic Polypeptide sequence of Variant No. 150 of mature Human GLA
In the case of B3, in data set [1], the “Relative Activity of GLA Variants After No Challenge (NC)” value was “+ (+ = 0.5 to 1.5 relative activity over WT GLA (SEQ ID NO: 5))”. Further, the “Relative Activity … at pH 4.2” value in data set [2] is “+ (+ = 0.5 to 1.5 relative activity over WT GLA (SEQ ID NO: 5))”. The “Relative Activity … at pH 7.1” value in data set [3] is “+ (+ = 0.5 to 1.5 relative activity over WT GLA (SEQ ID NO: 5))”.

B4: 149 (protein)
chain: LDNGLARTPTMGWLHWERFMCNLDCQEEPDSCISEKLFMEMAELMVSEGWKDAGYEYLCIDDCWMAPQRDSEGRLQADPQRFPHGIRSLANYVHSKGLKLGIYADVGNKTCAGFPGSFGYYDIDAQTFADWGVDLLKFDGCYCDSLENLADGYKHMSLALNRTGRSIVYSCEWPLYMWPFQKPNYTEIRQYCNHWRNFADIDDSWKSIKSILDWTSFNQERIVDVAGPGGWNDPDMLVIGNFGLSWNQQVTQMALWAIMAAPLFMSNDLRHISPQAKALLQDKDVIAINQDPLGKQGYQLRQGDNFEVWERPLSGLAWAVAMINRQEIGGPRSYTIAVASLGKGVACNPACFITQLLPVKRKLGFYEWTSRLRSHINPTGTVLLQLENTMQMSKDLLL
modifications: Synthetic Polypeptide sequence of Variant No. 149 of mature Human GLA
Take B4: the “Relative Activity of GLA Variants After No Challenge (NC)” value in data set [1] is given as “++ (++ = >1.5 to 2.5 relative activity over WT GLA (SEQ ID NO: 5))”. For the same molecule, the “Relative Activity … at pH 4.2” value in data set [2] was “+ (+ = 0.5 to 1.5 relative activity over WT GLA (SEQ ID NO: 5))”. The “Relative Activity … at pH 7.1” value in data set [3] is listed as “++ (++ = >1.5 to 2.5 relative activity over WT GLA (SEQ ID NO: 5))”.

B5: 152 (protein)
chain: LDNGLARTPTMGWLHWERFMCNLDCQEEPDSCISEKLFMEMAELMVSEGWKDAGYEYLCIDDCWMAPQRDSEGRLQADPQRFPHGIRQLANYVHSKGLKLGIYADVGNKTCAGFPGSFGYYDIDAQTFADWGVDLLKFDGCYCDSLENLADGYKHMSLALNRTGRSIVYSCEWPLYMWPFQKPNYTEIRQYCNHWRNFADIDDSWKSIKSILDWTSFNQEKIVDVAGPGGWNDPDMLVIGNFGLSWNQQVTQMALWAIMAAPLFMSNDLRHISPQAKALLQDKDVIAINQDPLGKQGYQLRQGDNFEVWERPLSGLAWAVAMINRQEIGGPRSYTIAVASLGKGVACNPGCFITQLLPVKRKLGFYEWTSRLRSHINPTGTVLLQLENTMQMSKDLLL
modifications: Synthetic Polypeptide sequence of Variant No. 152 of mature Human GLA
With B5, the “Relative Activity of GLA Variants After No Challenge (NC)” value in data set [1] is listed as “++ (++ = >1.5 to 2.5 relative activity over WT GLA (SEQ ID NO: 5))”. Moreover, in data set [2], the “Relative Activity … at pH 4.2” value is “++ (++ = >1.5 to 2.5 relative activity over WT GLA (SEQ ID NO: 5))”. Further, in data set [3], the “Relative Activity … at pH 7.1” value was “++ (++ = >1.5 to 2.5 relative activity over WT GLA (SEQ ID NO: 5))”.

B6: 38 (protein)
chain: LDNGLARTPTMGWLHWERFMCNLDCQEEPDSCISEKLFMEMAELMVSEGWKDAGYEYLCIDDCWMAPQRDSEGRLQADPQRFPHGIRQLANYVHSKGLKLGIYASVGNKTCAGFPGSFGYYDIDAQTFADWGVDLLKFDGCYCDSLENLADGYKHMSLALNRTGRSIVYSCEWPLYMWPFQKPNYTEIRQYCNHWRNFADIDDSWKSIKSILDWTSFNQERIVDVAGPGGWNDPDMLVIGNFGLSWNQQVTQMALWAIMAAPLFMSNDLRHISPQAKALLQDKDVIAINQDPLGKQGYQLRQGDNFEVWERPLSGLAWAVAMINRQEIGGPRSYTIAVASLGKGVACNPACFITQLLPVKRKLGFYEWTSRLRSHINPTGTVLLQLENTMQMSKDLLL
modifications: Synthetic Polypeptide sequence of Variant No. 38 of mature Human GLA
In the case of B6, in data set [1], the “Relative Activity of GLA Variants After No Challenge (NC)” value is “− (− = <0.5 relative activity to WT GLA (SEQ ID NO: 5))”. The “Relative Activity … at pH 4.2” value in data set [2] was “+ (+ = 0.5 to 1.5 relative activity over WT GLA (SEQ ID NO: 5))”. The “Relative Activity … at pH 7.1” value in data set [3] is listed as “− (− = <0.5 relative activity to WT GLA (SEQ ID NO: 5))”.
